Reference: publication PMC10176505, “PYK-SubstitutionOME: an integrated database containing allosteric coupling, ligand affinity and mutational, structural, pathological, bioinformatic and computational information about pyruvate kinase isozymes” (Database: The Journal of Biological Databases and Curation, 2023)

System: T1, C=C(OP(=O)(O)O)C(=O)O
T1 construct: full-length liver isozyme; homotetramer; purified or partially purified
Assay: enzyme kinetics, PEP concentration at half Vmax
Format: biochemical, Homo sapiens
Details: no allosteric effector; apparent affinity (not an association constant)
Excerpt: enzyme kinetics, PEP concentration at half Vmax on hLPYK | Ka-PEP (the kinetic equivalent to Kia-PEP), the apparent affinity for PEP

hLPYK (Homo sapiens), sequence (chain, as listed by the source): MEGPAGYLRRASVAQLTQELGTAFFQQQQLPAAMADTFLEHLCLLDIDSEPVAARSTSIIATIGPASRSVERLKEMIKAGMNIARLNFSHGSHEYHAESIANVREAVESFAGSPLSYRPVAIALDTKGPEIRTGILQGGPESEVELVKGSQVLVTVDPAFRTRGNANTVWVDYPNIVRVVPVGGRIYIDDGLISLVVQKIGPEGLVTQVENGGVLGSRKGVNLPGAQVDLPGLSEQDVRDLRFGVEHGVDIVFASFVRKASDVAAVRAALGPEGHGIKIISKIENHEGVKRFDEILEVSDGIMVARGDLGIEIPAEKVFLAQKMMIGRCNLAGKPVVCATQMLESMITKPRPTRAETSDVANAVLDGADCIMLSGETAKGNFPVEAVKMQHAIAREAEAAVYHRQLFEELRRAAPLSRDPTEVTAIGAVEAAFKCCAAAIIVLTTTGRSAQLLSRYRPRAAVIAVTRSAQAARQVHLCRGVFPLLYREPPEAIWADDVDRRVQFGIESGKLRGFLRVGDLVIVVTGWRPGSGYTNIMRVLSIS

Work on hLPYK (Homo sapiens) yielded a K0.5 of 0.22 mM.
